Here are results for two molecules from US20240239915A1 (Zymeworks, published 2024).

In experiment [1] the target is T1, Recombinant Human Fc gamma RIIA/CD32a (R167) Protein (R&D Systems), His-tagged (human, UniProt P12318 36-218).
T1 construct: also called human FcγRIIa; hFcγRIIa
T1 chain: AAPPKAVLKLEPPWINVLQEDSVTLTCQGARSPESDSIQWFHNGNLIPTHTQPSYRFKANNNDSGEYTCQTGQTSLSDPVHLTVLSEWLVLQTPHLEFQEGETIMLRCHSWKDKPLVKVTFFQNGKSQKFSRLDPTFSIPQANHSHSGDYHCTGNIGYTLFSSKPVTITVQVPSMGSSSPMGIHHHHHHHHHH
As to the kind of experiment: SPR (Biacore T200); receptor immobilized directly on CM5 chip, antibody as analyte at 4.7 µM.

In experiment [2] the target is T2, Recombinant Human Fc gamma RIIA/CD32a (H167) Protein (R&D Systems), His-tagged (human, UniProt P12318 34-218).
T2 construct: also called human FcγRIIa (H167); hFcγRIIa (H167)
T2 sequence: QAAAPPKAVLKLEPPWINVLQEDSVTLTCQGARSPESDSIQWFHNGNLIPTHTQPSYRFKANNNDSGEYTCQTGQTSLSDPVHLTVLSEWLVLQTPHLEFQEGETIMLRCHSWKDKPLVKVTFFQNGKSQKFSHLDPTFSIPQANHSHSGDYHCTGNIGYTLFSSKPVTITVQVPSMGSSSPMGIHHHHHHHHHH
Described as above.

Experiment [3] has as its target T3, Recombinant Human Fc gamma RIIB/C (CD32b/c) Protein (R&D Systems), His-tagged (human, UniProt P31994 46-217).
T3 construct: also called human FcγRIIb/c; hFcγRIIb/c
T3 sequence: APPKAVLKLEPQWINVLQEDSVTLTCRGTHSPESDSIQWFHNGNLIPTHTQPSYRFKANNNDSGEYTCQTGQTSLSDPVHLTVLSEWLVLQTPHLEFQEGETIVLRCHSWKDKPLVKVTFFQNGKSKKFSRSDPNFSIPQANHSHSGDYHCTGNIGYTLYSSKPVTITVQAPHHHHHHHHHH
The experiment is described as above.

For experiment [4], the target named is T4, Recombinant Human Fc gamma RIIIA/CD16a protein (R&D Systems), His-tagged (human, UniProt P08637 17-208).
T4 construct: also called human FcγRIIIa; hFcγRIIIa
Described as above.

Experiment [5] deals with T5, Recombinant Human Fc gamma RIIIA/CD16a (V176F) Protein (R&D Systems), His-tagged (human, UniProt P08637 17-208).
T5 construct: no further substitution applied; also called human FcγRIIIa (V176F); hFcγRIIIa (V176F)
Described as above.

The target of experiment [6] is T6, Recombinant Human Fc gamma RIIIB/CD16b Protein (R&D Systems), His-tagged (human, UniProt O75015 20-208).
T6 construct: also called human FcγRIIIb; hFcγRIIIb
T6 chain: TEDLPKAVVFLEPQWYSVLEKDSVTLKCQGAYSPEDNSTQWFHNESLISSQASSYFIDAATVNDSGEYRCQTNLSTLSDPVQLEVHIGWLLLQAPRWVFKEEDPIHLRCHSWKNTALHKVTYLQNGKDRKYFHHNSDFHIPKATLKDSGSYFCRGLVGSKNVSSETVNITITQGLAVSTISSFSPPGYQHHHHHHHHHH
The description is as above.

Experiment [7] deals with T7, Recombinant Cynomolgus Fc gamma RIIA/CD32a Protein (R&D Systems), His-tagged (cynomolgus).
T7 construct: also called cynomolgus FcγRIIa; cFcγRIIa
T7 chain: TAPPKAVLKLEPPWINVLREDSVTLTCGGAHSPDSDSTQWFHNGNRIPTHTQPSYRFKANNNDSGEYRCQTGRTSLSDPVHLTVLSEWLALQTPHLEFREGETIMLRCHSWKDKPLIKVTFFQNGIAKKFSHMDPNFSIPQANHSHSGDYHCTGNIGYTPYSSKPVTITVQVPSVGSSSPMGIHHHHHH
The description is as above.

For experiment [8], the target named is T8, Recombinant Cynomolgus Fc gamma RIIB protein (R&D Systems), His-tagged (cynomolgus).
T8 construct: also called cynomolgus FcγRIIb; cFcγRIIb
T8 chain: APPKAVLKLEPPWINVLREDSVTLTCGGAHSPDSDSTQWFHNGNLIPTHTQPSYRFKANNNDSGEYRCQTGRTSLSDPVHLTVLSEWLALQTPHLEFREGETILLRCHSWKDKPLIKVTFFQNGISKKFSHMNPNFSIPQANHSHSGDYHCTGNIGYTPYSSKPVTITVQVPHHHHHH
The experiment is described as above.

Experiment [9] concerns the target T9, Recombinant Cynomolgus Fc gamma RIII/CD16 Protein (R&D Systems), His-tagged (cynomolgus, UniProt Q8SPW2 17-208).
T9 construct: also called cynomolgus FcγRIII; cFcγRIII
T9 chain: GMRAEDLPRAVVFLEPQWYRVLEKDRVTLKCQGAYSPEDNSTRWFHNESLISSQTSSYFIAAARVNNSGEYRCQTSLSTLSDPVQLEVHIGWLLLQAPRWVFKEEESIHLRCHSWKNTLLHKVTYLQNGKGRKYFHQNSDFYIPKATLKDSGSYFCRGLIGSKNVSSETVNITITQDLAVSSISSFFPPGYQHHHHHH
The description is as above.

Experiment [10] has as its target T10, human FcRn (human neonatal Fc receptor large subunit p51 and beta2-microglobulin), biotinylated (human, UniProt P55899 24-297; P61769 21-119, biotinylated (site not stated)). The experiment is described as follows: BLI (Octet RED384), biotinylated FcRn on streptavidin biosensor, binding and dissociation at pH 6.0.
In experiment [11] the target is T11, Recombinant Cynomolgus Monkey Fc gamma RI/CD64 Protein, CF (R&D Systems), His-tagged (cynomolgus, UniProt P12314 11-288 (human entry)).
T11 construct: also called cynomolgus FcγRI; cFcγRI
T11 chain: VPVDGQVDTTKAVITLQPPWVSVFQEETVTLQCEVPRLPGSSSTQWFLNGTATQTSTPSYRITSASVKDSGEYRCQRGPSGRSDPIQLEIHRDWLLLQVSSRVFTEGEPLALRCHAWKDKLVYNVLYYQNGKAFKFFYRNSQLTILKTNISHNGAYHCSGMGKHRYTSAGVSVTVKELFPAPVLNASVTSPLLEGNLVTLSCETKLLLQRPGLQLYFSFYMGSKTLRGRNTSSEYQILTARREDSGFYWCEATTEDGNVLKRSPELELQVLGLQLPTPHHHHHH
The experiment is described as follows: SPR (Biacore T200); His-tagged receptor captured on anti-His antibody chip, antibody as analyte at 4.7 µM.

For experiment [12], the target named is T10, human FcRn (human neonatal Fc receptor …). As to the kind of experiment: BLI (Octet RED384), biotinylated FcRn on streptavidin biosensor, binding at pH 6.0, dissociation at pH 7.4; dissociation at pH 7.4 after binding at pH 6.0.
The target in experiment [13] is T2, Recombinant Human Fc gamma RIIA/CD32a …. As to the kind of experiment: SPR (Biacore T200); receptor immobilized directly on CM5 chip, antibody as analyte at 4.7 µM. This is another data set of the same source.
For experiment [14], the target named is T3, Recombinant Human Fc gamma RIIB/C …. The description is as above. The source holds these as a separate data set.
Experiment [15] deals with T4, Recombinant Human Fc gamma RIIIA/CD16a …. The experiment is described as above. This is another data set of the same source.
Experiment [16] deals with T5, Recombinant Human Fc gamma RIIIA/CD16a …. Described as above. This is another data set of the same source.
Experiment [17] concerns the target T6, Recombinant Human Fc gamma RIIIB/CD16b …. The description is as above.
The target of experiment [18] is T7, Recombinant Cynomolgus Fc gamma …. The experiment is described as above.
Experiment [19] has as its target T8, Recombinant Cynomolgus Fc gamma RIIB …. The description is as above.
Experiment [20] deals with T9, Recombinant Cynomolgus Fc gamma …. The description is as above.
Experiment [21] addresses T4, Recombinant Human Fc gamma RIIIA/CD16a …. As to the kind of experiment: SPR (Biacore T200): human FcγRIIIa immobilised directly on a CM5 chip, antibody as analyte; RU plotted against antibody concentration.
The target of experiment [22] is T6, Recombinant Human Fc gamma RIIIB/CD16b …. The experiment is described as follows: SPR (Biacore T200): human FcγRIIIb immobilised directly on a CM5 chip, antibody as analyte; RU plotted against antibody concentration.

Where two headings read alike, the source gives them in different places.

T5 sequence (P08637 other isoform, or with tags, fused parts or gaps V176F V176F): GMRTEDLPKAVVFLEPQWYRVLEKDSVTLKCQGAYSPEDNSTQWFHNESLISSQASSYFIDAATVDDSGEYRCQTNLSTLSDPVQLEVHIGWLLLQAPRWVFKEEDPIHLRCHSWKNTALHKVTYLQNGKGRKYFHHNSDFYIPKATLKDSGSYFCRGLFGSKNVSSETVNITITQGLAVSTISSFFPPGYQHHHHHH
T4 sequence (P08637 other isoform, or with tags, fused parts or gaps): as the sequence (P08637 other isoform, or with tags, fused parts or gaps V176F V176F) above, with F160V counted along it
T10 sequence (P55899 24-297 limits assumed, chain 1 of 2): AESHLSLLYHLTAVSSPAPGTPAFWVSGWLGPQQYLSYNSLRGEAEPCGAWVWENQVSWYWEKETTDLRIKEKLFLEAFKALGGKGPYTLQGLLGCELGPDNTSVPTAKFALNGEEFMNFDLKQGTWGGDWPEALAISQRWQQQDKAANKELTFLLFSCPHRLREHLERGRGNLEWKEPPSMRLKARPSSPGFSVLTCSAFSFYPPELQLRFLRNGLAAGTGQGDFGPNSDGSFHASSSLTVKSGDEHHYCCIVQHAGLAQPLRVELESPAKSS
T10 sequence (P61769 21-119 limits assumed, chain 2 of 2): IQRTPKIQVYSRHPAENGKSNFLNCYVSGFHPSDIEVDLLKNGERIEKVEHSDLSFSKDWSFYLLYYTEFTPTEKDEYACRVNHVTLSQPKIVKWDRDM

B1: IgG1 WT of the anti-EGFR antibody panitumumab (IgG2 Fc region replaced with a human wildtype IgG1 Fc region) (antibody)
heavy: not shown
light: not shown
notes: The legends were followed; also called anti-EGFR antibody IgG1 WT
For B1, the “binding response (RU)” value in experiment [1] was found to be 1700 RU; in experiment [2] it was 1400 RU; in experiment [3], 650 RU; in experiment [4], 2400 RU; in experiment [5] it was 530 RU; in [6], 250 RU. In addition, the “binding response (RU)” value is 910 RU in experiment [7], 840 RU in [8], 2800 RU in experiment [9] and 6700 RU in [11]. The molecule also gave a Kd in experiment [10] of 5.8 nM. Also, in experiment [12], the off-rate constant (koff) was 2.1 s⁻¹.

B2: L234A/L235A/D265A (LALA-DA) variant of IgG1 WT of the anti-EGFR antibody panitumumab (antibody)
heavy: QVQLQESGPGLVKPSETLSLTCTVSGGSVSSGDYYWTWIRQSPGKGLEWIGHIYYSGNTNYNPSLKSRLTISIDTSKTQFSLKLSSVTAADTAIYYCVRDRVTGAFDIWGQGTMVTVSSASTKGPSVFPLAPSSKSTSGGTAALGCLVKDYFPEPVTVSWNSGALTSGVHTFPAVLQSSGLYSLSSVVTVPSSSLGTQTYICNVNHKPSNTKVDKRVEPKSCDKTHTCPPCPAPEAAGGPSVFLFPPKPKDTLMISRTPEVTCVVVAVSHEDPEVKFNWYVDGVEVHNAKTKPREEQYNSTYRVVSVLTVLHQDWLNGKEYKCKVSNKALPAPIEKTISKAKGQPREPQVYTLPPSREEMTKNQVSLTCLVKGFYPSDIAVEWESNGQPENNYKTTPPVLDSDGSFFLYSKLTVDKSRWQQGNVFSCSVMHEALHNHYTQKSLSLSPGK
light: not shown
notes: Mutations in both CH2 domains; positions are EU numbers
Consider B2, for which the “binding response (RU)” value in experiment [2] was 24 RU; in experiment [3] it was 20 RU; in experiment [4] it was 0.4 RU; in [5], -2.2 RU; in [6], 0.3 RU; in [7], 25 RU. In addition, the “binding response (RU)” value in experiment [8] was 110 RU; in experiment [9], 8.4 RU; in experiment [13], 24 RU; in [14], 20 RU; in experiment [15], 0.4 RU; in experiment [16], -2.2 RU. The “binding response (RU)” value worked out at 0.3 RU in experiment [17], 25 RU in experiment [18], 110 RU in experiment [19] and 8.4 RU in experiment [20]. The binding result in [21] and in experiment [22] was “no binding (tested: 4.7 µM)” each time.
